Experimental findings from patent US20100136573 are described below.

The test system of the data set is Recombinant human GST-TDP-43 (N-terminal GST tag, full length), non-phosphorylated.
Chain of Recombinant human GST-TDP-43 (N-terminal GST tag, full length), non-phosphorylated (chain, as listed by the source): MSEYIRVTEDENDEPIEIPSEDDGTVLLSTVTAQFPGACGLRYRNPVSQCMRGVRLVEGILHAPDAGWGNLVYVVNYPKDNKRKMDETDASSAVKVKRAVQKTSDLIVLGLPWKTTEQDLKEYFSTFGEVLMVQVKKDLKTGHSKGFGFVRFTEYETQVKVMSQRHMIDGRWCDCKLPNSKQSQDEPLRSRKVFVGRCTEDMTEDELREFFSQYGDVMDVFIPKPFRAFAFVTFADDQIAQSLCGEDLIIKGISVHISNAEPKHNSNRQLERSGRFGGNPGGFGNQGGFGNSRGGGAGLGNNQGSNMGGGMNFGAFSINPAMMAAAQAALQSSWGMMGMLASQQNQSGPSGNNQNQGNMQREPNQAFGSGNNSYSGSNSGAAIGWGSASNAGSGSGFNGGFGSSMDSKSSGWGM

“recombinant casein kinase 1 (CK1; New England BioLabs, Inc)”: the “in vitro phosphorylation, read by anti-pTDP-43 Western blot” value is reported as “CK1 effectively phosphorylated GST-TDP-43 at S409/S410 in vitro”.
